Assay results published in the supplement of paper PMC7877785.
± gives the uncertainty stated by the source.

Assay: self-splicing fitness, log relative to wild type (ln ratio); higher = more splicing; Tetrahymena group I intron in knt gene, E. coli kanamycin selection, DiMSum; sequences stand for … in CUCUCU…GGAGGGAAAAGUUAUCAGGCAUGCACCUGGUAGCUAGUCUUUAAACCAAUAGAUUGCAUCGGUUUAAAAGGCAAGACCGUCAAAUUGCGGGAAAGGGGUCAACAGCCGUUCAGUACCAAGUCUCAGGGGAAACUUUGAGAUGGCCUUGCAAAGGGUAUGGUAAUAAGCUGACGGACAUGGUCCUAACCACGCAGCCAAGUCCUAAGUCAACAGAUCUUCUGUUGAUAUGGAUGCAGUUCACAGACUAAAUGUCGGUCGGGGAAGAUGUAUUCUUCUCAUAAGAUAUAGUCGGACCUCUCCUUAAUGGGAGCUAGCGGAUGAAGUGAUGCAACACUGGAGCCGCUGGGAACUAAUUUGUAUGCGAAAGUAUAUUGAUUAGUUUUGGAGUACUCGUGGUCG
Summary of the method: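 A randomised library covering all eight P1ex-region intron nucleotides was built with the intron in the knt kanamycin-resistance gene on pET-22b(+) and held in E. coli BL21(DE3). Cells were grown overnight at 37°C or 30°C on LB agar, with or without 25 μg/mL kanamycin, plus 100 μg/mL carbenicillin, 50 μM IPTG and 0.2% rhamnose, and pooled colonies were amplicon-sequenced on an Illumina HiSeq 2500. DiMSum fitness is the error-weighted combination of wild-type-normalised replicate fold changes, kanamycin versus none.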

| Sequence | self-splicing fitness (ln) (30 °C) | self-splicing fitness (ln) (37 °C) |
| --- | --- | --- |
| CUCAAGCAAUAUUACGGCUC | -3.53 ± 0.26 | -1.34 ± 0.21 |
| CUCAAGCAAUAUUACGGGUA | -2.42 ± 0.14 | -1.01 ± 0.1 |
| CUCAAGCAAUAUUACGGUGG | -2.01 ± 0.061 | -1.1 ± 0.081 |
| CUCAAGCAAUAUUACGGUUU | -2.38 ± 0.1 | -2.36 ± 0.14 |
| CUCAAGCAAUAUUACGUACA | -3.5 ± 0.23 | -1.83 ± 0.18 |
| CUCAAGCAAUAUUACGUGCU | -4.3 ± 0.24 | -2.73 ± 0.17 |
| CUCAAGCAAUAUUACGUGUU | -3.89 ± 0.23 | -2.76 ± 0.22 |
| CUCAAGCAAUAUUACGUUAA | -4.15 ± 0.3 | -2.76 ± 0.19 |
| CUCCAGCAAUAUUACGAAAG | -0.942 ± 0.11 | -1.41 ± 0.14 |
| CUCCAGCAAUAUUACGACCG | -0.451 ± 0.12 | -1.15 ± 0.2 |
| CUCCAGCAAUAUUACGACGG | -3.56 ± 0.23 | -2.42 ± 0.24 |
| CUCCAGCAAUAUUACGACUU | -3.85 ± 0.26 | -2.15 ± 0.19 |
| CUCCAGCAAUAUUACGAGAC | -4.42 ± 0.46 | -3.28 ± 0.37 |
| CUCCAGCAAUAUUACGAGAG | -4.68 ± 0.31 | -1.32 ± 0.13 |
| CUCCAGCAAUAUUACGAGAU | -2.99 ± 0.19 | -3.15 ± 0.21 |
| CUCCAGCAAUAUUACGAGUC | -3.83 ± 0.34 | -2.15 ± 0.26 |
| CUCCAGCAAUAUUACGAUCC | -4.16 ± 0.47 | -1.49 ± 0.32 |
| CUCCAGCAAUAUUACGAUUC | -4.14 ± 0.18 | -2.72 ± 0.19 |
| CUCCAGCAAUAUUACGAUUU | -3.75 ± 0.2 | -2.08 ± 0.15 |
| CUCCAGCAAUAUUACGCAGG | -3.95 ± 0.21 | -2.83 ± 0.27 |
| CUCCAGCAAUAUUACGCGGU | -4.01 ± 0.23 | -3.96 ± 0.25 |
| CUCCAGCAAUAUUACGCUGU | -4.01 ± 0.34 | -2.97 ± 0.34 |
| CUCCAGCAAUAUUACGGCAU | – | -2.56 ± 0.39 |
| CUCCAGCAAUAUUACGGGCC | -1.01 ± 0.26 | – |
| CUCCAGCAAUAUUACGGGCU | -3.21 ± 0.13 | -2.49 ± 0.18 |

| Sequence | self-splicing fitness (ln) (30 °C) | self-splicing fitness (ln) (37 °C) |
| --- | --- | --- |
| CUCCAGCAAUAUUACGGGGC | -4.13 ± 0.23 | -2.56 ± 0.17 |
| CUCCAGCAAUAUUACGGGGU | -3.58 ± 0.17 | -2.61 ± 0.19 |
| CUCCAGCAAUAUUACGUAAC | -3.3 ± 0.13 | -3.08 ± 0.2 |
| CUCCAGCAAUAUUACGUCAU | -2.15 ± 0.13 | -2.84 ± 0.24 |
| CUCCAGCAAUAUUACGUCCU | -3.42 ± 0.28 | -3.01 ± 0.38 |
| CUCCAGCAAUAUUACGUCUA | -4.32 ± 0.24 | -3.05 ± 0.18 |
| CUCCAGCAAUAUUACGUCUC | -2.97 ± 0.17 | -3.71 ± 0.33 |
| CUCCAGCAAUAUUACGUGUC | -3.56 ± 0.22 | -2.55 ± 0.23 |
| CUCCAGCAAUAUUACGUUUG | -3.57 ± 0.12 | -2.1 ± 0.11 |
| CUCGAGCAAUAUUACGAAGA | -2.78 ± 0.29 | -1.64 ± 0.25 |
| CUCGAGCAAUAUUACGAAUA | -3.12 ± 0.3 | -2.59 ± 0.28 |
| CUCGAGCAAUAUUACGACAA | -2.69 ± 0.19 | -2.65 ± 0.19 |
| CUCGAGCAAUAUUACGACCC | – | -1.61 ± 0.46 |
| CUCGAGCAAUAUUACGAGCA | -4.04 ± 0.42 | -2.09 ± 0.27 |
| CUCGAGCAAUAUUACGAGGU | -3.53 ± 0.24 | -2.58 ± 0.21 |
| CUCGAGCAAUAUUACGAGUU | – | -2.42 ± 0.24 |
| CUCGAGCAAUAUUACGAUUA | -3.13 ± 0.3 | -2.56 ± 0.26 |
| CUCGAGCAAUAUUACGCCGA | -1.32 ± 0.19 | -2.42 ± 0.24 |
| CUCGAGCAAUAUUACGCUAA | – | -2.34 ± 0.36 |
| CUCGAGCAAUAUUACGCUUC | -3.71 ± 0.3 | -2.24 ± 0.29 |
| CUCGAGCAAUAUUACGGCCA | -2.34 ± 0.24 | -3.47 ± 0.35 |
| CUCGAGCAAUAUUACGGGGU | -3.46 ± 0.18 | -2.54 ± 0.22 |
| CUCGAGCAAUAUUACGGUAG | -2.62 ± 0.16 | -0.386 ± 0.12 |
| CUCGAGCAAUAUUACGUAUA | – | -2.29 ± 0.31 |
| CUCUAGCAAUAUUACGACGC | – | -1.31 ± 0.35 |

| Sequence | self-splicing fitness (ln) (30 °C) | self-splicing fitness (ln) (37 °C) |
| --- | --- | --- |
| CUCUAGCAAUAUUACGACUU | – | -3.23 ± 0.31 |
| CUCUAGCAAUAUUACGCGCU | -2.55 ± 0.3 | -3.61 ± 0.27 |
| CUCUAGCAAUAUUACGCUAG | -3.15 ± 0.25 | -1.85 ± 0.28 |
| CUCUAGCAAUAUUACGGACU | – | -4.16 ± 0.39 |
| CUCUAGCAAUAUUACGGAGC | -3.72 ± 0.27 | -3.48 ± 0.26 |
| CUCUAGCAAUAUUACGGCAG | -2.41 ± 0.28 | -2.72 ± 0.44 |
| CUCUAGCAAUAUUACGGGCA | -2.62 ± 0.23 | -2.29 ± 0.23 |
| CUCUAGCAAUAUUACGGGCG | -2.25 ± 0.17 | -2.36 ± 0.19 |
| CUCUAGCAAUAUUACGUACA | -3.04 ± 0.38 | -1.89 ± 0.24 |
| CUCUAGCAAUAUUACGUAUG | -3.02 ± 0.21 | -1.61 ± 0.15 |
| CUCUAGCAAUAUUACGUCAG | -2.85 ± 0.23 | -2.34 ± 0.32 |
| CUCUAGCAAUAUUACGUCCG | -2.91 ± 0.18 | -0.955 ± 0.14 |
| CUCUAGCAAUAUUACGUCCU | -2.87 ± 0.39 | – |
| CUCUAGCAAUAUUACGUGAG | -3.45 ± 0.18 | -2.12 ± 0.19 |
| CUCUAGCAAUAUUACGUGUU | -3.44 ± 0.15 | -2.39 ± 0.12 |
| CUCUAGCAAUAUUACGUUCG | -3.54 ± 0.19 | -2.33 ± 0.18 |
| CUCUAGCAAUAUUACGUUGG | -3.9 ± 0.22 | -2.92 ± 0.23 |
| CUCUAGCAAUAUUACGUUUG | -3.43 ± 0.13 | -2.27 ± 0.14 |
| CUGAAGCAAUAUUACGAAUG | -0.544 ± 0.083 | 0.252 ± 0.12 |
| CUGAAGCAAUAUUACGACCU | -3.63 ± 0.4 | -3.1 ± 0.18 |
| CUGAAGCAAUAUUACGAGCU | -3.42 ± 0.21 | -2.84 ± 0.27 |
| CUGAAGCAAUAUUACGAGGC | -3.15 ± 0.17 | -1.69 ± 0.16 |
| CUGAAGCAAUAUUACGAUUU | -3.34 ± 0.2 | -1.6 ± 0.24 |
| CUGAAGCAAUAUUACGCAUA | -3.91 ± 0.3 | -2.57 ± 0.32 |
| CUGAAGCAAUAUUACGCGCC | -3.07 ± 0.31 | – |

| Sequence | self-splicing fitness (ln) (30 °C) | self-splicing fitness (ln) (37 °C) |
| --- | --- | --- |
| CUGAAGCAAUAUUACGCGUU | -3.36 ± 0.18 | -2.86 ± 0.24 |
| CUGAAGCAAUAUUACGCUCC | -2.74 ± 0.34 | – |
| CUGAAGCAAUAUUACGCUGA | -3.66 ± 0.24 | -3.28 ± 0.43 |
| CUGAAGCAAUAUUACGGGCU | -3.56 ± 0.17 | -3.15 ± 0.21 |
| CUGAAGCAAUAUUACGGGGU | -3.34 ± 0.24 | -0.289 ± 0.17 |
| CUGAAGCAAUAUUACGGGUA | -3.21 ± 0.15 | -3.96 ± 0.42 |
| CUGAAGCAAUAUUACGGGUC | -3.92 ± 0.4 | – |
| CUGAAGCAAUAUUACGGGUG | -0.0462 ± 0.047 | 0.304 ± 0.071 |
| CUGAAGCAAUAUUACGGUUA | -4.2 ± 0.35 | -2.52 ± 0.28 |
| CUGAAGCAAUAUUACGUACG | 0.694 ± 0.073 | 0.514 ± 0.09 |
| CUGAAGCAAUAUUACGUCGU | -3.23 ± 0.26 | -1.79 ± 0.21 |
| CUGAAGCAAUAUUACGUCUG | 0.302 ± 0.069 | 0.352 ± 0.08 |
| CUGAAGCAAUAUUACGUGGG | -2.66 ± 0.095 | -1.89 ± 0.11 |
| CUGAAGCAAUAUUACGUGUC | -2.53 ± 0.14 | -2.81 ± 0.28 |
| CUGAAGCAAUAUUACGUUAU | -4.59 ± 0.23 | -3.63 ± 0.37 |
| CUGAAGCAAUAUUACGUUCA | -1.87 ± 0.11 | -0.567 ± 0.12 |
| CUGAAGCAAUAUUACGUUCG | 0.231 ± 0.06 | -0.181 ± 0.082 |
| CUGCAGCAAUAUUACGAAAA | – | -2.19 ± 0.31 |
| CUGCAGCAAUAUUACGAAAC | – | -1.87 ± 0.37 |
| CUGCAGCAAUAUUACGAAAG | -1.42 ± 0.14 | -1.47 ± 0.15 |
| CUGCAGCAAUAUUACGCAAG | -2.58 ± 0.18 | -2.83 ± 0.44 |
| CUGCAGCAAUAUUACGCCUU | -2.87 ± 0.15 | -2.94 ± 0.29 |
| CUGCAGCAAUAUUACGCGUG | -1.92 ± 0.12 | -1.67 ± 0.16 |
| CUGCAGCAAUAUUACGGAGG | -2.5 ± 0.13 | -2.03 ± 0.21 |
| CUGCAGCAAUAUUACGGGCC | – | -1.2 ± 0.5 |
